The supplement of paper PMC12042874
± gives the uncertainty stated by the source.

Test: amyloid nucleation score (Sup35N fusion, yeast selection) (log enrichment); library NNK2; higher = more nucleation; inactive = no reads after selection
In short: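 Sup35N was fused to peptides of 20 random codons and expressed in psi-negative yeast, which were induced with 100 μM copper sulfate for 24 hours and then grown on medium lacking adenine and uracil for 7 days at 30°C. Plasmid inserts from input and output were sequenced on Illumina. The nucleation score is the DiMSum log enrichment of output over input reads, centred on the mode score of non-aggregating sequences. Sequences with under 100 input reads were left out, and random libraries had three technical output replicates.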
Substance YCMSYCRSTCYHQEFHGPAC has an amyloid nucleation score of 4.34 ± 0.072. Substance YCSWFVWSTANVSMAYIVEF has an amyloid nucleation score of -0.892 ± 0.41. For YCVLMNS, the amyloid nucleation score was -0.173 ± 0.41. With YCYLMMEAWHMEANWYHCFV the amyloid nucleation score was -0.209 ± 0.2. Work on YDCLCFFPWCRLFNSRKSMA yielded an amyloid nucleation score of 0.34 ± 0.14. Work on YDCLSWRLKEERQATFGFRG yielded an amyloid nucleation score of 0.505 ± 0.51. In the case of YDDKGEIRLPDQSMNCFVSD, the amyloid nucleation score is reported as -0.766 ± 1. In the case of YDKDFCDRRTEPKKFVLRHA, the amyloid nucleation score is reported as 0.092 ± 0.4. For YDKSYFVFFNP, the amyloid nucleation score was 1.36 ± 0.27. YDLPFYAKEHGLPFVQWGNW gave an amyloid nucleation score of 0.261 ± 0.22. With YDQVSFAL the amyloid nucleation score was -0.584 ± 0.76. In the case of YDSDFFFHNLGDEPASVGFR, the amyloid nucleation score is reported as “inactive”. YDSFMVGVCYAG gave an amyloid nucleation score of -1.42 ± 1.1. With YDSWLDTVVFDFFCLCLDKA the amyloid nucleation score was -1.42 ± 0.75. YDVGTPRIRDFLCAIDRGNH showed an amyloid nucleation score of 0.106 ± 0.34. In the case of YDVNGLFTITNPAANYMKPT, the amyloid nucleation score is reported as -1.3 ± 0.34. YDYNCRDVWIWHA gave an amyloid nucleation score of -0.184 ± 0.63. Work on YDYVEGAEPPLGDGCIVVFH yielded an amyloid nucleation score of -0.451 ± 0.79. With YECGCHLFD the amyloid nucleation score was -0.225 ± 0.74. YELHRNAIPRRRSQDSL showed an amyloid nucleation score of -0.81 ± 0.39. For YESLYVKLVAEPQIRCMYYS, the amyloid nucleation score was -0.152 ± 0.34. Work on YEYDLSPCSVVRRVTLKRMV yielded an amyloid nucleation score of 1.55 ± 0.4. In the case of YFCSVSRFRVLDSDYYRKGW, the amyloid nucleation score is reported as -0.817 ± 1.1. With YFFFIVLDLYLMSCFGVVCE the amyloid nucleation score was -1.13 ± 0.76. With YFGCQMMSN the amyloid nucleation score was 0.459 ± 0.54. Substance YFGGLANKMLILSWR has an amyloid nucleation score of 0.294 ± 0.24. For YFHVVFL, the amyloid nucleation score was 2.75 ± 0.094. YFIVVFMLSVNKT showed an amyloid nucleation score of 0.06 ± 0.54. For YFLLTFDILLCRAFGTAGPE, the amyloid nucleation score was “inactive”. For YFNFDL, the amyloid nucleation score was -0.313 ± 0.76. With YFNFIPGANRHDVSHFYGSY the amyloid nucleation score was 0.299 ± 0.21. In the case of YFRCTHYTKTGTLVGDISVC, the amyloid nucleation score is reported as -0.657 ± 0.38. Work on YFSCITILGFGSSNSWRRIM yielded an amyloid nucleation score of -1.02 ± 0.78. YFSYVMSVAATAMLGLVVVR gave an amyloid nucleation score of 0.189 ± 0.3. Work on YFVPKLYRVSFKLYKWCFKW yielded an amyloid nucleation score of 0.277 ± 0.64. YFWLVFLKKHRQGLEGKGGW gave an amyloid nucleation score of 0.004 ± 0.62. For YFWQEIVAFNKVESLILELG, the amyloid nucleation score was -0.451 ± 1. YFYRRVCGINAGPQPCLEYV showed an amyloid nucleation score of -1.27 ± 0.54. Work on YGESVHTR yielded an amyloid nucleation score of -0.446 ± 0.38. YGFDLKSGQSADASCASVSG gave an amyloid nucleation score of 0.586 ± 0.31. With YGFEAFWDNLQPAFTVPRVM the amyloid nucleation score was “inactive”. With YGLLHQFRSCKRI the amyloid nucleation score was -0.682 ± 0.29. With YGMSRNIGAVVWHFCG the amyloid nucleation score was -0.368 ± 1. With YGMVIRCPARVCVQTLFNNA the amyloid nucleation score was 4.86 ± 0.094. In the case of YGNPRIFIESMKYEVGIRVS, the amyloid nucleation score is reported as “inactive”. Work on YGNSYRG yielded an amyloid nucleation score of -0.044 ± 0.55. YGRIR gave an amyloid nucleation score of -0.131 ± 0.63. Substance YGRPIIVMYKLLRQNSSSRL has an amyloid nucleation score of -0.496 ± 0.48. YGSCGQRKN gave an amyloid nucleation score of 0.519 ± 0.3. In the case of YHSWVGFIRYPIISWGRMMG, the amyloid nucleation score is reported as “inactive”. YHTSQLYWLLRCQSSFNSWG gave an amyloid nucleation score of 2.48 ± 0.079. Work on YIAYGDFSSFFTLNIS yielded an amyloid nucleation score of 7.476 ± 0.047. Substance YICRNLISESLCLYYTGARG has an amyloid nucleation score of 5.03 ± 0.065. Work on YIDLLGRVCHYSLGWLCYCM yielded an amyloid nucleation score of -1.05 ± 1.1. YILCYTVNCNAELSHLVCDI showed an amyloid nucleation score of 7.154 ± 0.058. Work on YIPKLLRCGRGCHYILSYAD yielded an amyloid nucleation score of 0.065 ± 0.62. With YISFSDEVFV the amyloid nucleation score was “inactive”. Work on YISMSMLGCLRTLREVHRDR yielded an amyloid nucleation score of 3.21 ± 0.11. Substance YIVCLMESIRI has an amyloid nucleation score of 3.2 ± 0.17. For YIWNCDSDSIVPLLL, the amyloid nucleation score was “inactive”. Work on YKCDVICCFGIWVLMFEN yielded an amyloid nucleation score of 5.25 ± 0.074. With YKLTGLDYKWASLNATWETQ the amyloid nucleation score was “inactive”. Substance YKRLEMLRMSCTIWTITPPR has an amyloid nucleation score of 0.234 ± 0.32. Substance YKVYPWLFIYLLLLDRAD has an amyloid nucleation score of -1.45 ± 0.73. For YKYMGLFSSIFNVLGSLISY, the amyloid nucleation score was -1.95 ± 1.1. Substance YLDGYSSFTSFEKAMARRCG has an amyloid nucleation score of 0.305 ± 0.74. In the case of YLEFSPTSITWGAPLERYST, the amyloid nucleation score is reported as “inactive”. In the case of YLEMMYVAFNFFNGIYCLFY, the amyloid nucleation score is reported as “inactive”. YLFFYNMSRDRSDTWCEHAV showed an amyloid nucleation score of 3.5 ± 0.094. With YLKDPTFMGVNAFCVVLHFV the amyloid nucleation score was 6.01 ± 0.077. YLLFNLHAVYLLVSGEPSPC gave an amyloid nucleation score of 0.405 ± 0.39. For YLLNLEF, the amyloid nucleation score was “inactive”. YLLRNWLPGKVGCHQFLILW showed an amyloid nucleation score of 0.757 ± 0.39. In the case of YLNYNIMS, the amyloid nucleation score is reported as “inactive”. In the case of YLPTGELIHHYKTSIVLDSA, the amyloid nucleation score is reported as -0.458 ± 0.41. For YLRLHYAFSGVNNKGIESGC, the amyloid nucleation score was “inactive”. In the case of YLSNKT, the amyloid nucleation score is reported as -0.515 ± 0.29. In the case of YLSVPSGQSGGDGFNDESSV, the amyloid nucleation score is reported as “inactive”. Work on YLTRAIIVFIS yielded an amyloid nucleation score of 3.66 ± 0.062. With YLVDTSCRVGWTDVYFPVRV the amyloid nucleation score was “inactive”. With YLYGCGNMVVIWRSGRQMDI the amyloid nucleation score was -1.42 ± 0.49. With YMFNSWYGLSSLWGKSKKMS the amyloid nucleation score was -0.538 ± 0.26. With YMKKSMF the amyloid nucleation score was -0.095 ± 1.1. YMLMREASGLLRPGAEMWFN gave an amyloid nucleation score of -0.177 ± 0.45. In the case of YMMSRASSVIIEREYK, the amyloid nucleation score is reported as 0.479 ± 0.74.
